The values that follow come from PMC3691600, “Conversion of fatty aldehydes into alk (a/e)nes by in vitro reconstituted cyanobacterial aldehyde-deformylating oxygenase with the cognate electron transfer system” (Biotechnology for Biofuels, 2013).

In this experiment the target is Aldehyde-deformylating oxygenase (Synpcc7942_1593) from Synechococcus elongatus PCC7942 (Synechococcus elongatus PCC7942) (UniProt Q54764).
Aldehyde-deformylating oxygenase (Synpcc7942_1593) from Synechococcus elongatus PCC7942 (Synechococcus elongatus PCC7942), sequence (Q54764 whole entry): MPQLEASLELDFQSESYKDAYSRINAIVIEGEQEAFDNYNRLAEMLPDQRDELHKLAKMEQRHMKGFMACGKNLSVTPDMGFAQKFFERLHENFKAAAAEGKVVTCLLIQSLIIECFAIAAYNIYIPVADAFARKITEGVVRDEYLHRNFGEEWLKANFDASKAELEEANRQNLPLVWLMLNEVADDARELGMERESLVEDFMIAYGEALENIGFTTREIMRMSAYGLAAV

Spinach ferredoxin, sequence (P00221 51-147): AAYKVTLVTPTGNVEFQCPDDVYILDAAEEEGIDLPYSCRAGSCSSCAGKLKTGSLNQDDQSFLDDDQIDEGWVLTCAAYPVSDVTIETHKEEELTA

“Spinach ferredoxin (from UniProt P00221 51-147) (natural protein)”: the Yield of n-pentadecane by ADO 1593 with Fd (spinach) + FNR (PCC7942) + NADPH stood at 13.9 µM and the Yield of n-pentadecane by ADO 1593 with Fd (spinach) + FNR (spinach) + NADPH amounted to 15.7 µM.
